The nanobody polyreactivity screen of Harvey et al. (2022)

Assay: yeast display, Sf9 membrane polyspecificity reagent, FACS + sequencing; frameworks hold sequencing errors
How it was run: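 Sorting gates, low and high (top ~1%), were placed on anti-HA fluorescence to track expression and on streptavidin fluorescence to track reagent binding. A clone's polyreactivity label is taken from the gate it came out of. The reagent was 10% biotinylated, detergent-solubilized Sf9 membrane, applied for 1 hour at 4 °C to galactose-induced yeast display cells.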

Sequence	polyreactivity (PSR sort gate)
QVQLVESGGRLVQAGGSLRLSCAASGITFYYYAMGWYRQAPGKERELVAAISSGGTRTYYADSVKGRFTISRDNAKNTVYLQMNSLKPEDTAVYYCAAPTYWHPTYDYWGQGTQVTVSS	high polyreactivity
QVQLVESGGRLVQAGGSLRLSCAASGRIFANYAMGWYRQAPGKERELVAAISRSGGSTSYADSVKGRFTISRDNAKNTVYLQMNSLKTEDTAVYYCAATRSRYQPVKYGYWGQGTQVTVTS	high polyreactivity
QVQLVESGGRLVQAGGSLRLSCAASGRIFAYYAMGWYRQAPGKERELVAAISRSGVSTYYADSVKGRFTISRDNAKNTVYLQMNSLKPEDTAVYYCAARWRSGFTSGDYWGQGTQVTVSS	low polyreactivity
QVQLVESGGRLVQAGGSLRLSCAASGRIFDGNAMGWYRQAPGKERELVAAISWTGGSTYYADSVKGRFTISRDNAKNTVYLQMNSLKPEDTAVYYCAADSGWWLDQWSWYDYWGQGTQVTVSS	low polyreactivity
QVQLVESGGRLVQAGGSLRLSCAASGRIFGRYAMGWYRQAPGKERELVAAISSSGGSTYYADSVKGRFTISRDNAKNTVYLQMNSLKPEDTAVYYCAAEIIKVAYRVAYYYWGQGTQVTVSS	high polyreactivity
QVQLVESGGRLVQAGGSLRLSCAASGRIFKSYAMGWDRQAPGKERELVAAISRSGGRTYYADSVKGRFTISRDTAKNTVYLQMICLKPEDTAVYFCAGTTIVAPYWGQGTQVTVST	low polyreactivity
QVQLVESGGRLVQAGGSLRLSCAASGRIFRGYAMGWYRQEPGKERELVAAISQSGSSTYYADSVKGRFTISRDNAKNTVYLQMNSLKPEDTAVYYSAVIYVKHFGYWGLGTQVTVSS	high polyreactivity
QVQLVESGGRLVQAGGSLRLSCAASGRIFSINVMGWYRHAPGKERELVAAISKRGGSTYYADSVKGRFTISRDNAKNTVYLQMNSLKPEDTAVFYCAARRHYTYGNGPSRGGQMDYWGQGTQVTVSS	high polyreactivity
QVQLVESGGRLVQAGGSLRLSCAASGRIFTYNAMGWYTQAPGKERELVAGITRRGGSTYYADSVKGRFTISRDNAKNTVYLQMNSLKPEDTAVYYCAATYPNARRYEYWGQGTQVTVSS	high polyreactivity
QVQLVESGGRLVQAGGSLRLSCAASGRIFVVNAMGWYRQAPGKERELVAAIDRSGGSTYYADSVKGRFTISRDNAKNTVYLQMNSLKPEDTAVYYCNTGRRYYSYRRDYWGQGTQVTVSS	high polyreactivity
QVQLVESGGRLVQAGGSLRLSCAASGRIIAYNAKGWYRQAPGKERELVDAISRSGGSTYYADSVKGRFTISRDNAKNTVYLQMNSLKPEDTAVYYCAASLKVPYATMNYWGQGTQVTVSS	high polyreactivity
QVQLVESGGRLVQAGGSLRLSCAASGRTFARNAMGWYRQAPGKERELVAAISWSGGSTYYADSVKGRFTISRDNAKNTVYLQMNSLKPEDTAVYYCAARICYYNYWGQGTQVTVSS	high polyreactivity
QVQLVESGGRLVQAGGSLRLSCAASGRTFGWYAMGWYRQAPGKERELVAAINRRVGRTYYADSVKGRFTISRDNAKNTVYLQMNSLIPEDTAVYYCAVKQGFYSRALKLYYWGQGTQVTVSS	high polyreactivity
QVQLVESGGRLVQAGGSLRLSCAASGRTFSNAIGWDRQAPGKEREEVADISSGGSTNYADSVKGRFTISRDNAKNTVYLQMNSLKPEDTAVYYCAAVSGSLYGYSDDYWGQGTQVTVSS	low polyreactivity
QVQLVESGGRLVQAGGSLRLSCAASGRTFVYNAMGWYRQAPGKESELVAAISSGGGTNYADSVKGRFTISRDNAKNTVYLQMNSLKPEDTAVYYCAAGFDGSRHPGFDSWGQGTQVTVSS	low polyreactivity
QVQLVESGGRLVQAGGSLRLSCAASGSIFFLYAKGWYRQAPGKERELVAAISGGGGSTYYADSVKGRFTISRDIAKYTVYLLMNSLKPEDTAVYYCAALSKTRGGFWGQGTQVTVSS	high polyreactivity
QVQLVESGGRLVQAGGSLRLSCAASGSIFNAYAMGWYRQAPGKEREFVAVITSNGGITYYADSVKGRFTISRDNAKNTVYLQMNSLKPEDTAVYYCAAYEIYYEFDSWGQGTQVTVSS	low polyreactivity
QVQLVESGGRLVQAGGSLRLSCAASGSIFQYYARGWYRQAPGKVREFVSAITSDGSSTYYADSVKGRFTISRDNAKNTVYLQMKSLKPEDTAVYYCAAGWVGYRRPSMYYWGQVTQVTVSS	high polyreactivity
QVQLVESGGRLVQAGGSLRLSCAASGSTFDENAMGWYRQAPGKERELVAAISRRGVSTYYADSVKGRFTISRDNEKNTVYLQMNSVKPEDTAVYYCARRYGGVGMYYWGQGTQVTVSS	high polyreactivity
QVQLVESGGRLVQAGGSLRLSCAASGSTFGRYTMGWYRQAPGKERELVTAITSSGDSTYYADSVKGRFTISRDNAKNTVYLQMNSLKPEDTAVYDCAADYADLNDYWGQGTQVTVSS	low polyreactivity
QVQLVESGGRLVQAGGSLRLSCAASGSTFGWYAMAWYRPAPGKERELVAAIRSNGGSTYYADSVKGRFTISRDNAKNTVYLQMNSLKPEDTAVYYCAARGSPSKHHWYDYWGQGTQVTVSS	low polyreactivity

Sequence	polyreactivity (PSR sort gate)
QVQLVESGGRLVQAGGSLRLSCAASGSTFTKYALGWYRPAPGKERELVAAISRSGGSTYYADSVKGRFSISRDNAKNTVYLQMNSLKPEDTAVYYCAARDSSRNYFGDGARDYWGQCTQVTVSS	high polyreactivity
QVQLVESGGRLVQAGGSLRLSCAASGSTFVQNAMGWYRQATGKERELVAAISKSGGRTYYADSVKGRFTISRDNAKNTVYLQMNSLKPEDTAVYYCAAVTVASPTRMDYWGQGTQVTVSS	high polyreactivity
QVQLVESGGRLVQAGGSLRLSCAASGSTFYRNAMGWYRQAPGKERELVASINNGGSTYYADSVKGRFTISRDNAKNTVYLQMNSLKPEDTAVYYCAATESWDYDYWGQGTQVTVSS	low polyreactivity
QVQLVESGGRLVQAGGSLRLSCAASGSTIAYNAMGWYIQAPGKERELVAANSKGGGSTYYADSVKGRFTISRDNAQNTVYLAMNSLKPAETAVYYCAAVSGYSTGGSRYRYNYWGQGTQVTVSS	high polyreactivity
QVQLVESGGRLVQAGGSLRLSCAASGSTITPNSMGWYRQAPGKERELVAAITTGGSTKYADSVKGRFTISRDNAKKTVYLQLTSLNPADTAVYYCNTDRGAYFYVIWPPWTYDWGQGTQVTVTS	low polyreactivity
QVQLVESGGRLVQAGGSLRLSCAASGSTLYAYAMGWYRPAPGKERELVAAIRTGGSTYYADSVNGRFTISRDNAKNTVYLQMNSLKPEDTAVYYCAADHGYQYGYWGQGTQVTVSS	low polyreactivity
QVQLVESGGRLVQAGGSLRLSCAASGYTYDRYAMGWYRQAPGKERQLVAAISSSGTSTYYADSVKGRFTISRDNEKNTVYLQMNSLKPEDTAVYYCAATRLKLKFAYWGQGTQVTVSS	high polyreactivity
QVQLVESGGRLVQAGGSLRLSCAPSGFIFGDNGIGGSRQSPGKEMELVAGINRRSGTYYADSVKGRFTISRDNAKNTVYLLMNSLKREDTAVYYCAARLDAYQSGRYYYWGQGTQVTLSS	high polyreactivity
QVQLVESGGRLVQAGGSLRLSCAPSGFMFADYMGWYRQAPGKERALVASISSTGSSTYADSVKGRFTITRDNAKNTVYLPMNSLKPEDTAVYDCAATGVWYSSNDYASEYDYWGQGTQVTVSS	high polyreactivity
QVQLVESGGRLVQAGGSLRLSCAPSGSIFWGYAMGWYRQAPGKERELVAVISRGGSTYYADSVKGRFTISRDNAKNTVYLKMNSLKPEDTAVYYCAASSSWFYSPEYDYWGQGTQVTVSS	low polyreactivity
QVQLVESGGRLVQAGGSLRLSCASSGRTFYPYVMGWYRQAPGKERELVAAISSGTSTYYADSVKGRFTISRDNAKNTVYLQMNSLKPEDTAVYYCAVRVYTYVLYDFWGQGTQVTVSS	high polyreactivity
QVQLVESGGRLVQAGGSLRLSCSASGLTFQYYAMGWYRQAPGKERELVATINSGGSTKYADSVKGRFTISRDNAKNTVYLQMNRLKPEDTAVYYCAADPYRRYRRPSRYGYWGQGTQVTVSS	high polyreactivity
QVQLVESGGRLVQAGGSLRLSGAASVLTFNFNAMGWYRQAPGKERELVAANSYRAGSTYYADSVKGRFTISRDNAKNTVYLQMNSLKPEDTAVYYCAKPTYRFYWGDFDYWGQGTQVTVSS	low polyreactivity
QVQLVESGGRLVQAGGSLRLTCAASGFIFKTNGMRWYRKAPGKERELVAAITSRGGSTYYADSVKGRFTISRDNAKNNVYLQMNSLKPEDTAVYYCAARGSRYTDYDYWGQGTHVTVSS	high polyreactivity
QVQLVESGGRLVQAGGSLRLTCAASGSTIYQYVMRWYRQAPGKERELVAVITWSGGRTYYADSVKGRFTISRDNAKNTVYLQMNSLKPEDTAGYYCAADPLSGYDYWGQGTHVTVSS	low polyreactivity
QVQLVESGGRLVQAGGSLSLSCAASGSIFYRNAMGWYSQAPAKEWEFVAVITSSGTSTYYADSVKGRFTISRDNEKNTVSFQMKSLKPEDTAVYYCAADESSPSRGDYWGQGTQVSVSS	low polyreactivity
QVQLVESGGRLVQAGGTLRLSCAASGRIFGYNAMGWYRQAPGKERHLVAVITSGGSKNYADSVKGRFTISRDNAKHTVYLQMNSVKPEDTAVYYCPRRIWDRWSYPVRVRYYYWGQGTQVTGSS	high polyreactivity
QVQLVESGGRLVQAGRSLRLSCAASGGTFQRYVMGWYRQAPGKERELVAAISRSGSTYADSVKGRFTISRDNAKNTGYLQMNSLKPEDTAVYYCNVVRYYRYYLHGYDYWGQGTQVTVSS	high polyreactivity
QVQLVESGGRLVQAGRSLRLSCAASGINFYGYAMGWYRQAPGKERELVAAITSYDGSTYYADSVKGRFTISRDNAKNTVYLQMNSLKPEDTAVYYCAAYRYGSRGGYWGQGTQVTVSS	high polyreactivity
QVQLVESGGRLVQPGGSLSLSCADSGNIFYWNTMGWYRQAPGKERELVATISWSGRTTYYADSVKGRFTISRDNEKNTVYLQMNSLKPEDTAVYYCAADVTSGVYSFSFDYLGQGTQVTVSS	low polyreactivity
